21 molecules from patent US20180371100A1 (Kyowa Kirin, published 2018) can be followed below.

Residue numbers refer to the chain shown, from its start. Where “and” joins values, the source holds several entries; their conditions need not be identical. Equal entries are not always repeated.

For one assay, the target named is T1, FLAG fusion human CRTH2 (human, UniProt Q9Y5Y4 1-395).
T1 construct: Expressed on rat 3Y1-B cells; also called human CRTH2 with a C terminal to which a FLAG tag was added; not shown: FLAG tag at the C terminal
T1 sequence: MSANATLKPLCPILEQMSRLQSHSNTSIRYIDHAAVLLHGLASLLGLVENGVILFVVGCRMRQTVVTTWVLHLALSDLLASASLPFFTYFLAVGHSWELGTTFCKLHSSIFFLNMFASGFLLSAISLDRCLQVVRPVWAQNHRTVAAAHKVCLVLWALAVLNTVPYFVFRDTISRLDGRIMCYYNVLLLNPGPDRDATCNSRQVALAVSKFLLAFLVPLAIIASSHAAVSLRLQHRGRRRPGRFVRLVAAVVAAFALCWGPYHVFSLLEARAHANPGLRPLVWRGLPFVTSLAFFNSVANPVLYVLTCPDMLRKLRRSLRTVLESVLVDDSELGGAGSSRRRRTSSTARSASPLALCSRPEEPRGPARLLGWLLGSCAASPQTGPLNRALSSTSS
As to the kind of experiment: flow cytometry on FLAG fusion human CRTH2-expressing 3Y1-B cells; logistic fit of Geomean; ± is the standard error. The procedure:
FLAG fusion human CRTH2-expressing 3Y1-B cells were peeled using a 0.25% trypsin-EDTA (NACALAI TESQUE, Inc.), washed with PBS, and suspended with SM. Next, the cells were seeded in a 96-well plate such that one well has 1×10⁵ cells. Further, chLym2 or each of the humanized Lym2 antibodies was added at each final concentrations of 50000, 12500, 3125, 781, 195, 49, 12, and 3 ng/mL to cause a reaction at 4° C. for 60 minutes.
After the cells were washed with SM, Goat F(ab′)₂ Anti-Human IgG PE (γchain specific) (Southern Biotech Inc.) diluted 500 times with SM was added to cause a reaction at 4° C. for 60 minutes. The cells were washed with SM and resuspended with 50 μL of SM, and the fluorescent intensity was measured by flow cytometry (BD Biosciences, FACS CantoII).
The data was analyzed by FLowJo 7.65 (Tomy Digital Biology Co., Ltd.), curve fitting of the Geomean value in each concentration was performed using a Logistic curve, and the 50% effective concentration (EC₅₀) value of the binding of chLym2 and each humanized Lym2 antibody and the standard error (SE) value thereof were calculated using R language (Ver. 3.02) which is a language for statistical analysis.

Assay [1] concerns the target T2, Azami-Green fusion cynomolgus monkey CRTH2 (cynomolgus monkey, UniProt Q9Y5Y4 1-395 (human entry)).
T2 construct: Expressed on CHO/DG44 cells; not shown: Azami-Green tag from vector phmAG1-MNLinker (MBL)
T2 chain: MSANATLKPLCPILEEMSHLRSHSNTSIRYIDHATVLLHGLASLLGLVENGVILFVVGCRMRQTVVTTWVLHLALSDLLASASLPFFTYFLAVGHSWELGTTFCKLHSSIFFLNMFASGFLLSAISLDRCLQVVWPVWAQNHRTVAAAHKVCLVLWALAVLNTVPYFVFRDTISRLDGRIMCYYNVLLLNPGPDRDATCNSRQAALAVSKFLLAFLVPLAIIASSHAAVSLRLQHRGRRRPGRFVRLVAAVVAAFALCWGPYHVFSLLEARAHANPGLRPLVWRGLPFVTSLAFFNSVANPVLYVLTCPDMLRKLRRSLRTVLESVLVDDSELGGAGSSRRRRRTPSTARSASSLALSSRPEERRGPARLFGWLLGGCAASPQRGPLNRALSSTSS
As to the kind of experiment: flow cytometry on Azami-Green fusion cynomolgus monkey CRTH2-expressing CHO/DG44 cells, 2-30000 ng/mL. The method, then: The Azami-Green fusion human CRTH2-expressing CHO/DG44 cells and the cynomolgus monkey CRTH2-expressing CHO/DG44 cells established in Example 24 were peeled using 0.02% EDTA solution (NACALAI TESQUE, Inc.), washed with PBS, and suspended with SM. Next, the cells were seeded in a 96-well plate such that each well had 2×10⁵ cells, and humanized Lym2 antibody LV0HV1 or the anti-DNP IgG1 antibody at each of final concentrations 30000, 7500, 1875, 469, 117, 29, 7, and 2 ng/mL were added thereto to cause a reaction at 4° C. for 40 minutes.
After the cells were washed three times with SM, goat anti-Human IgG alexa 647 (Molecular Probes) diluted to a concentration of 10 μg/mL with SM was added thereto at 100 μL/well to perform a reaction at 4° C. for 40 minutes. The cells were washed with SM and resuspended with 100 μL of SM, and the fluorescent intensity was measured by flow cytometry (BD Biosciences, FACS CantoII).

B1: humanized Lym2 antibody LV0HV0 (antibody, V domains shown)
VH: EVQLVESGGGVVQPGRSLRLSCAASGFTFSNYYMAWVRQAPGKGLEWVATISYDGSSTYYRDSVKGRFTISRDNAKNSLYLQMNSLRAEDTAVYYCARHRGYYYSGAGYFDYWGQGTMVTVSS
VL: DIVMTQTPLSLPVTPGESASISCRSSQSLEYSDGYTYLEWYLQKPGQSPQVLIYGVSNRFSGVPDRFSGSGSGTDFTLKISRVEAEDVGVYYCFQATHDPLTFGQGTKLEIK
On to B1, for which the EC50 (in general, the midpoint of the concentration-response curve) in the assay with FLAG fusion human CRTH2 is 0.55 µg/mL and 0.87 µg/mL.

B2: rat/human chimeric Lym2 antibody (antibody, V domains shown)
VH: B1 VH with V11L, L18M, R19K, G42K, N77S, S78T, N84D, A88S, V93T, T117V
VL: DVVLTQTPVSLSVTLGDQASISCRSSQSLEYSDGYTYLEWYLQKPGQSPQVLIYGVSNRFSGVPDRFIGSGSGTDFTLKISRVEPEDLGVYYCFQATHDPLTFGSGTKLEIK
notes: expressed in FUT8 knockout CHO cells; also called chLym2
For the molecule B2, the EC50 in the assay with FLAG fusion human CRTH2 was 0.5 µg/mL and 0.54 µg/mL.

B3: humanized Lym2 antibody LV3bHV0 (antibody, V domains shown)
VH: B1 VH
VL: B1 VL with I2V, M4L, P15L
In the assay with FLAG fusion human CRTH2, B3 had a concentration for a half-maximal effect (EC50) of 0.81 µg/mL.

B4: humanized Lym2 antibody LV0HV4 (antibody, V domains shown)
VH: B1 VH with L18M, N77S, V93T, T117V
VL: B1 VL
On to B4, for which, in the assay with FLAG fusion human CRTH2, the concentration for a half-maximal effect (EC50) is 0.58 µg/mL and 0.67 µg/mL.

B5: humanized Lym2 antibody LV0HV3 (antibody, V domains shown)
VH: B1 VH with L18M, V93T, T117V
VL: B1 VL
The molecule B5 returned a 50% effective concentration (EC50) with FLAG fusion human CRTH2 of 0.69 µg/mL.

B6: humanized Lym2 antibody LV3aHV4 (antibody, V domains shown)
VH: B1 VH with L18M, N77S, V93T, T117V
VL: B1 VL with I2V, M4L, A85P
For B6, the EC50 with FLAG fusion human CRTH2 turned out to be 0.76 µg/mL.

B7: humanized Lym2 antibody LV4HV4 (antibody, V domains shown)
VH: B1 VH with L18M, N77S, V93T, T117V
VL: B1 VL with I2V, M4L, P15L, A85P
B7 came in with an EC50 in the assay with FLAG fusion human CRTH2 of 0.68 µg/mL.

B8: humanized Lym2 antibody LV3aHV0 (antibody, V domains shown)
VH: B1 VH
VL: B1 VL with I2V, M4L, A85P
For the molecule B8, in the assay with FLAG fusion human CRTH2, the EC50 came out at 0.7 µg/mL.

B9: humanized Lym2 antibody LV2bHV0 (antibody, V domains shown)
VH: B1 VH
VL: B1 VL with P15L, A85P
Take B9: it took 0.67 µg/mL to reach a half-maximal effect with FLAG fusion human CRTH2 (EC50).

B10: humanized Lym2 antibody LV1HV0 (antibody, V domains shown)
VH: B1 VH
VL: B1 VL with P15L
As to B10, in the assay with FLAG fusion human CRTH2, it took 0.69 µg/mL to reach a half-maximal effect (EC50).

B11: humanized Lym2 antibody LV0HV2a (antibody, V domains shown)
VH: B1 VH with V93T, T117V
VL: B1 VL
In the assay with FLAG fusion human CRTH2, B11 returned an EC50 of 0.65 µg/mL.

B12: humanized Lym2 antibody LV4HV0 (antibody, V domains shown)
VH: B1 VH
VL: B1 VL with I2V, M4L, P15L, A85P
As for B12, in the assay with FLAG fusion human CRTH2, the EC50 came to 0.74 µg/mL.

B13: humanized Lym2 antibody LV0HV1 (antibody, V domains shown)
VH: B1 VH with V93T
VL: B1 VL
notes: also called humanized anti-human CRTH2 antibody LV0HV1
As for B13, the binding result in assay [1] is listed as “binds”. Moreover, in the assay with FLAG fusion human CRTH2, the EC50 was 0.78 µg/mL.

B14: humanized Lym2 antibody LV2cHV0 (antibody, V domains shown)
VH: B1 VH
VL: B1 VL with I2V, M4L
With B14, the midpoint of the response with FLAG fusion human CRTH2, the EC50, lay at 0.68 µg/mL.

B15: humanized Lym2 antibody LV0HV2b (antibody, V domains shown)
VH: B1 VH with L18M, T117V
VL: B1 VL
For B15, the EC50 with FLAG fusion human CRTH2 was determined as 0.72 µg/mL.

B16: humanized Lym2 antibody LV2aHV4 (antibody, V domains shown)
VH: B1 VH with L18M, N77S, V93T, T117V
VL: B1 VL with M4L, P15L
Take B16: the response with FLAG fusion human CRTH2 was half-maximal at 0.51 µg/mL (EC50).

B17: humanized Lym2 antibody LV2aHV0 (antibody, V domains shown)
VH: B1 VH
VL: B1 VL with M4L, P15L
For B17, a half-maximal effect with FLAG fusion human CRTH2 (EC50) was put at 0.66 µg/mL.

B18: humanized Lym2 antibody LV3bHV4 (antibody, V domains shown)
VH: B1 VH with L18M, N77S, V93T, T117V
VL: B1 VL with I2V, M4L, P15L
For B18, in the assay with FLAG fusion human CRTH2, the EC50 came out at 0.53 µg/mL.

B19: humanized Lym2 antibody LV2bHV4 (antibody, V domains shown)
VH: B1 VH with L18M, N77S, V93T, T117V
VL: B1 VL with P15L, A85P
B19: the EC50 in the assay with FLAG fusion human CRTH2 worked out at 0.59 µg/mL.

B20: humanized Lym2 antibody LV1HV4 (antibody, V domains shown)
VH: B1 VH with L18M, N77S, V93T, T117V
VL: B1 VL with P15L
In the assay with FLAG fusion human CRTH2, B20 gave an EC50 of 0.58 µg/mL.

B21: humanized Lym2 antibody LV2cHV4 (antibody, V domains shown)
VH: B1 VH with L18M, N77S, V93T, T117V
VL: B1 VL with I2V, M4L
As for B21, in the assay with FLAG fusion human CRTH2, the EC50 came to 0.54 µg/mL.
